Results reported in patent US20250347705.

Biological target: human chorionic gonadotropin (hCG), alpha/beta heterodimer (Homo sapiens) (UniProt P01215+P0DN86)
Conditions: hCG magnetic beads with qPCR, artificial urine; round 6 pool 2.54%, round 7 20.88%, round 8 22.85%

Chain of human chorionic gonadotropin (hCG), alpha/beta heterodimer (Homo sapiens) (P01215 25-116, chain 1 of 2, other chains not shown): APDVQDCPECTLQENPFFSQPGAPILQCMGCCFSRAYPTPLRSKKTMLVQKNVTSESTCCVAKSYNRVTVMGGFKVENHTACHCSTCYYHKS

## TCGCACATTCCGCTTCTACCNNNNNNNNNNNNNNNNNNNNNNNNNNNNNNNNNNNNNNNNCGTAAGTCCGTGTGTGCGAA [SELEX round 9 pool]
  binding signal (% of input DNA bound): 77.4
